B1: HDV Ribozyme (parent)
chain: GGCCGGCAUGGUCCCAGCCUCCUCGCUGGCGCCGGCUGGGCAACAUUCCGAGGGGACCGUCCCCUCGGUAAUGGCGAAUGGGACCCA

Variants of: B1
Test: self-cleavage, relative activity (ratio to wild type); higher = more cleavage; co-transcriptional

Variant | self-cleavage
GGCCGGCAUGGUCCCAACCUCCUCGCUGGCGCCGGCUGGGCAACAUUCCGAGGGGACCGUCUCCUCGGUAAUGGCGAAUGGGACCCA [G17A C62U] | 0.554
GGCCGGCAUGGUCCCAGCCUCCUCGCUGGCGCCGGCUGGGCAACAUUCCGAGGGGGCCGUCCCCUCGGUAAUGGCCAAUGGGACCCA [A56G G76C] | 1.16
GGCCGGCAGGGUCCCAGCCUCCUCGCUGGCGCCGGCUGGGCAACAUUCCGAGGGGACCGGCCCCUCGGUAAUGGCGAAUGGGACCCA [U9G U60G] | 0.875
GGCCGGCAUGGUCCCAGCCUCCUCGCUGGCGCGGGCUGGGCAACAUUCCGAGGGGACCGUCCCCUCGGUAAAGGCGAAUGGGACCCA [C33G U72A] | 0
GGCCGGCAUGGUCCCAGUCUCCUCGCUGGCGCCGGCUGGGCAACAUUCCGAGGGGAGCGUCCCCUCGGUAAUGGCGAAUGGGACCCA [C18U C57G] | 0.831
GGCAGGCAUGGUCCCAGCCUCCUCGCUGGCGCCGGCUGGGCAACAUUCCGAGGGGACCGUACCCUCGGUAAUGGCGAAUGGGACCCA [C4A C61A] | 0.219
GGCCGGCAUGGUCCCAGCCUCCUCGCUGGCGCCGGCUAGGCAACAUUCCGAGGGGACCGUCCCCUCGGUAAUGGCGAAUGGAACCCA [G38A G82A] | 0.0482
CGCCGGCAUGGUCCCAGCCUCCUCGCUGGCGCCGGCUGGGCAACAUUCCGAGGAGACCGUCCCCUCGGUAAUGGCGAAUGGGACCCA [G1C G54A] | 0.131
GGCCGGCAUGGUCCCAGCCUCCUCGCUGGCGCCGGCUGGGCAACAUUCCGAGGGGACCGUCUCCUCGGCAAUGGCGAAUGGGACCCA [C62U U69C] | 1.07
GGCCGGCAUGGUCCCAGCCUCCUCGCUGGCGCCGGCUGGGCAACAUUCCGAGGGGACCGUCUCCUCGGUAAUUGCGAAUGGGACCCA [C62U G73U] | 0.472
GGCCGGCAUGGUCCCAGCCUCCUCGCUGGCGCCGGCUGGGCAACAUUCCGAGGUGACCUUCCCCUCGGUAAUGGCGAAUGGGACCCA [G54U G59U] | 1.14
GGCCGGCAUGGUCCCAGCCUCCUCGCUGGCGCCGGCGGGGCAACAUUCCGAGGGGACCGUCCCCUCGGUAAUGGCGAAUGGGAGCCA [U37G C84G] | 0
GGCCGGCAUGGUCCCAGCCUCCUCGCUGGCGCCGGCUCGGCAACAUUCCGAGGGGACCGUCCCCUCGGUAAUGGCGAAUGGGAGCCA [G38C C84G] | 0.0489
GGUCGGCAUGGUCCCAGCCGCCUCGCUGGCGCCGGCUGGGCAACAUUCCGAGGGGACCGUCCCCUCGGUAAUGGCGAAUGGGACCCA [C3U U20G] | 0.125
GGGCGGCAUGGUCCCAGCCUCCUCGCUGGCGCCGGCUGGGCAACAUUCCGAGGGGACCGUCCCCUCGGUAAGGGCGAAUGGGACCCA [C3G U72G] | 0.345
GGCCGGCAUGGUCCCAGCCUCCUCGCUGGCGCCGGCUGGGCAGCAUUCCGAGGGGUCCGUCCCCUCGGUAAUGGCGAAUGGGACCCA [A43G A56U] | 0.688

Variant | self-cleavage
GGCCGGCAUGGUCCCAGCCUCCUCGCUGGCGCCGGCUGGGCAACAUUCCGAGGGGACCGUCCCCUCGGUAAUGGCGAACGGGAACCA [U79C C84A] | 0.462
GGCCGGCAUGGUCCCAGCCUCCUCGCUGGCGCCGGCUGGGCAACAUUCCGAGGGGACCGUACCCUCGGUAAUGGCGAACGGGACCCA [C61A U79C] | 0.506
GGCCGGCAUGGUCCCAGCCUCCUCGCUGGCGCCGGCUUGGCAACAUUCCGAGGGGACCGUCCCCUCGGUAAUGGCAAAUGGGACCCA [G38U G76A] | 0.145
GGCCGGCAUGGUCCCAGCCUCCUCGCUGGCGCCGGCUAGGCAACAUUCCGAGGGGACCGUACCCUCGGUAAUGGCGAAUGGGACCCA [G38A C61A] | 0.105
GGCCGGCAUGGUCCCAGCCUCCUCGCUGGCGCCGGCUGGGCAACAUUCCGAGGGGACCGUCCCUUCGGUAAUGGCGAAUGGGACCAA [C64U C86A] | 0.66
GGCCGGCAUGGUGCCAGCCUCCUCGCUGGCGCCGGCUGGGCAACAUUCGGAGGGGACCGUCCCCUCGGUAAUGGCGAAUGGGACCCA [C13G C49G] | 0.356
GGCCGGCAUGGUCCCAGCCUCCUCGCUGGCGCCGGCUGGGCUACAUUCCGAGGGGACCGUCCCCUCGGUAAUGGCGAAUGGGAGCCA [A42U C84G] | 0.198
GGCCGGCAUGGUCCCAGCCUCCUCGCUGGCGCCGGCUGGGCAACAUUCCGAGGGGACCGUCCCCUCGGUGAGGGCGAAUGGGACCCA [A70G U72G] | 0.582
GGCCGACAUGGUCCCAGCCUCCUCGCUGGCGCCGGCUGGGCAACAUUCCGAGGAGACCGUCCCCUCGGUAAUGGCGAAUGGGACCCA [G6A G54A] | 0.471
GGCCGGCAUGGUCCCAGCCUCCUCGCUGGCGCCGGCUGGGCAACAUACCGAGGGGACCGUCCCCUCGGUAAUGGGGAAUGGGACCCA [U47A C75G] | 0.172
GGCCGGCAUGGUCCCAGCCUCCACGCUGGCGCCGGCUGGGCAACAUUACGAGGGGACCGUCCCCUCGGUAAUGGCGAAUGGGACCCA [U23A C48A] | 0.88
GGCCGGCAUGGUCCCAGCCUUCUCGCUGGCGCCGGCUGGGCAACUUUCCGAGGGGACCGUCCCCUCGGUAAUGGCGAAUGGGACCCA [C21U A45U] | 0.283
GGCCGGCAUGGUCCCAGCCUCCUCGCUGGCGCCGGCUGGGCAACAUCCCGAGGGGACCGUCCCAUCGGUAAUGGCGAAUGGGACCCA [U47C C64A] | 0.567
GGCCGGCAUGGUCCCAGCCUACUCGCUGGCGCCGGCUGGGCAACAUUCCGAGGGGACCGUCCCCUCGGUAAUGGCGACUGGGACCCA [C21A A78C] | 0
GGCCGGCAUGGUCCCAGCCUCCUCGCUGGCUCCGGCUGGGCAACGUUCCGAGGGGACCGUCCCCUCGGUAAUGGCGAAUGGGACCCA [G31U A45G] | 0.107
GGCCGGCAUGGUCCUAGCCUCCUCGCUGGCGCCGGCUGGGCAACAUUCCGAGGGGACUGUCCCCUCGGUAAUGGCGAAUGGGACCCA [C15U C58U] | 0.811
